# Test results: US20150307627A1 (BAC IP B V, published 2015)
# B1: IgG-Fc-16 (VHH)
# VHH: QVQLQESGGGLVQAGGSLRLSCAASGRAVGNYIIGWFRQAPGKEREFVATTTRDGGSTFYADSVKGRFTISRDNAKNTVNLQMNSLEPEDTAVYYCAAKSWSVPLRPTSADFDSWGQGTQVTVSS
# notes: also called VHH fragment IgG-Fc-16
# Assays:
# HuIgG3 [1] = biological target: T1, HuIgG3 (human, UniProt P01860-1 1-377); experiment: SPR, VHH immobilised, 1:1 Langmuir fit
# T1 construct: Purified human IgG of subclass 3; also called Human-IgG3
# Procedure: (§1) Binding affinity constants of anti IgG-Fc VHH fragments were determined using surface plasmon resonance analysis (SPR) on a BiaCore 3000. For this purpose, purified VHH fragments were immobilised onto the surface of a CM5 sensor chip and subsequently incubated with different concentrations of purified IgG antibodies in HBS-EP buffer. Binding was allowed for 3 minutes at 30 μl/min followed by a dissociation step of 15 minutes at 30 μl/min Binding curves were fitted according to a 1:1 Langmuir binding model using Biacore software.
# HuIgG2 [2] = biological target: T2, HuIgG2 (human, UniProt P01859-1 1-326 = IgG part); experiment: SPR, VHH immobilised, 1:1 Langmuir fit
# T2 construct: Purified human IgG of subclass 2; also called Human-IgG2
# T2 sequence (P01859 other isoform, or with tags, fused parts or gaps): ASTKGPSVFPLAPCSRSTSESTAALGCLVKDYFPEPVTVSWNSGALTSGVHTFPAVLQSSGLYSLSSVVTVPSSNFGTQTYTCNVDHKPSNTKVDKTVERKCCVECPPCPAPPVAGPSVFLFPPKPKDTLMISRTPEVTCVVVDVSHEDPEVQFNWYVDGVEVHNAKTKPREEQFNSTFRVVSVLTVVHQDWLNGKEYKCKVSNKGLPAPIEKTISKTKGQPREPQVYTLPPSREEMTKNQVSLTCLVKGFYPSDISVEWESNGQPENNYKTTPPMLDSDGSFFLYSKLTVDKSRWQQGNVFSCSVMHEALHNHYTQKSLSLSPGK
# Procedure: as §1
# HuIgG1 [3] = biological target: T3, HuIgG1 (human, UniProt P01857-1 1-330 = IgG part); experiment: SPR, VHH immobilised, 1:1 Langmuir fit
# T3 construct: Purified human IgG of subclass 1; also called Human-IgG1
# T3 sequence (P01857 other isoform, or with tags, fused parts or gaps): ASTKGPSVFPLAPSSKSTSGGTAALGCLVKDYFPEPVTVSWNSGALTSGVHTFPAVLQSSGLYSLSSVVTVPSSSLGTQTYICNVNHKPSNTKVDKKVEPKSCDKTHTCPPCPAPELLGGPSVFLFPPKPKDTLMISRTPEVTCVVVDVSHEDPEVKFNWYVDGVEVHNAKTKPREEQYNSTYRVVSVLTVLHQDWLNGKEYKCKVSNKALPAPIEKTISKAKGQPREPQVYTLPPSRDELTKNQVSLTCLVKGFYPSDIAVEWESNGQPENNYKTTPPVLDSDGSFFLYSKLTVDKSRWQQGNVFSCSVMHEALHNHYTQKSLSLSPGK
# Procedure: as §1
# HuIgG4 [4] = biological target: T4, HuIgG4 (human, UniProt P01861-1 1-327 = IgG part); experiment: SPR, VHH immobilised, 1:1 Langmuir fit
# T4 construct: Purified human IgG of subclass 4; also called Human-IgG4
# T4 sequence (P01861 other isoform, or with tags, fused parts or gaps): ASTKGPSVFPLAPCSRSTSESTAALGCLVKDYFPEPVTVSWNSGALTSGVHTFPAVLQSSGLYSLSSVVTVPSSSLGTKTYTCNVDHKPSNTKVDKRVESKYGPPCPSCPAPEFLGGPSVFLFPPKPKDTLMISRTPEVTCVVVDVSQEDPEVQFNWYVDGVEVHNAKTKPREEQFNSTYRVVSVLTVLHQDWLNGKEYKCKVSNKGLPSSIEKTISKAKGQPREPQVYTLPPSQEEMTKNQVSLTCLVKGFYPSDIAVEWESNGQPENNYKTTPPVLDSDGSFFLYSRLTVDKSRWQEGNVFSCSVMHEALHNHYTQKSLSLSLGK
# Procedure: as §1
# Human IgG [5] = biological target: T5, Human IgG; experiment: SPR, VHH immobilised, 1:1 Langmuir fit
# T5 construct: also called HuIgG; human IgG-Fc domains
# Procedure: as §1
# Mouse IgG [6] = biological target: T6, Mouse IgG; experiment: SPR, VHH immobilised, 1:1 Langmuir fit
# T6 construct: also called IgG-Fc from mouse
# Procedure: as §1
# Bovine IgG [7] = biological target: T7, Bovine IgG; experiment: SPR, VHH immobilised, 1:1 Langmuir fit
# T7 construct: also called IgG-Fc from bovine
# Procedure: as §1
# Human IgG [8] = biological target: T5, Human IgG; experiment: affinity chromatography, VHH on NHS-Sepharose, 150 cm/h
# Procedure: The dynamic binding capacity (DBC) of the IgG-Fc domain binding VHH fragments immobilized onto NHS sepharose was tested. 10 ml of 1.0 mg/ml human IgG in PBS pH 7.4 was loaded on a 400 μl column with a linear flow of 150 cm/h. After the washing with 10 column volumes PBS pH 7.4, the column was eluted with 0.1 M glycine buffer pH 3.0. Based on integration of the OD280 signal of the flow through and elution peak, the dynamic binding capacity of the column was calculated (Table 11).
# Donkey IgG = experiment: SPR, VHH immobilised, IgG 50 µg/ml
# Procedure: (§2) Broad binding reactivity of VHH fragment IgG-Fc-16 was determined using surface plasmon resonance analysis (SPR) on a BiaCore 3000. For this purpose, purified VHH fragment IgG-Fc-16 was immobilised onto the surface of a CM5 sensor chip and subsequently incubated with purified IgG antibodies (50 μg/ml) from different species in HBS-EP buffer. Binding was allowed for 1 minute at 5 μl/min followed by a dissociation step of 2.5 minutes at 5 μl/min. Binding signals (Resonance Units) were compared to background signals measured with HBS-EP buffer only. For comparison, the relative reactivity of Protein A and G towards different IgG species is also given.
# Sheep IgG = biological target: T8, Sheep IgG; experiment: SPR, VHH immobilised, IgG 50 µg/ml
# T8 construct: also called IgG-Fc from sheep
# Procedure: as §2
# Bovine IgG, Fab fragment = experiment: SPR, VHH immobilised, IgG 50 µg/ml
# Procedure: as §2
# Syrian Hamster IgG = biological target: T9, Syrian Hamster IgG; experiment: SPR, VHH immobilised, IgG 50 µg/ml
# T9 construct: also called IgG-Fc from syrian hamster
# Procedure: as §2
# Human IgG, Fab fragment = experiment: SPR, VHH immobilised, IgG 50 µg/ml
# Procedure: as §2
# Horse IgG = experiment: SPR, VHH immobilised, IgG 50 µg/ml
# Procedure: as §2
# Rabbit IgG = experiment: SPR, VHH immobilised, IgG 50 µg/ml
# Procedure: as §2
# Human IgG, Fc fragment = experiment: SPR, VHH immobilised, IgG 50 µg/ml
# Procedure: as §2
# HuIgG3 [9] = biological target: T1, HuIgG3; experiment: SPR, VHH immobilised, IgG 50 µg/ml
# Procedure: as §2
# Goat IgG = biological target: T10, Goat IgG; experiment: SPR, VHH immobilised, IgG 50 µg/ml
# T10 construct: also called IgG-Fc from goat
# Procedure: as §2
# Bovine IgG, Fc fragment = experiment: SPR, VHH immobilised, IgG 50 µg/ml
# Procedure: as §2
# Mouse IgG 1 = Mouse IgG 1 (mouse, UniProt P01868 1-324 = IgG part); experiment: SPR, VHH immobilised, IgG 50 µg/ml
# Procedure: as §2
# Dog IgG = biological target: T11, Dog IgG; experiment: SPR, VHH immobilised, IgG 50 µg/ml
# T11 construct: also called IgG-Fc from dog
# Procedure: as §2
# Rat IgG2a = Rat IgG2a (rat, UniProt P20760 1-322); experiment: SPR, VHH immobilised, IgG 50 µg/ml
# Chain of Rat IgG2a (P20760 whole entry): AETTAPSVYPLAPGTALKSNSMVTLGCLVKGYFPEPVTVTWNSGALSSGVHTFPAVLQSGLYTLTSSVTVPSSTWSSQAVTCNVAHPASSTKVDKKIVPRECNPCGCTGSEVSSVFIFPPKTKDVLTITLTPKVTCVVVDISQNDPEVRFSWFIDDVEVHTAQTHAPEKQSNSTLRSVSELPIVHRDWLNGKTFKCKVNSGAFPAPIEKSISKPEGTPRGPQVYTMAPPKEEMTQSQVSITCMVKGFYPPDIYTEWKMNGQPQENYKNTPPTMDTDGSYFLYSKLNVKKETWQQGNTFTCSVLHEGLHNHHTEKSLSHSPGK
# Procedure: as §2
# Mouse IgG2a = Mouse IgG2a (mouse, UniProt P01863 1-330 = IgG part); experiment: SPR, VHH immobilised, IgG 50 µg/ml
# Chain of Mouse IgG2a (P01863 whole entry): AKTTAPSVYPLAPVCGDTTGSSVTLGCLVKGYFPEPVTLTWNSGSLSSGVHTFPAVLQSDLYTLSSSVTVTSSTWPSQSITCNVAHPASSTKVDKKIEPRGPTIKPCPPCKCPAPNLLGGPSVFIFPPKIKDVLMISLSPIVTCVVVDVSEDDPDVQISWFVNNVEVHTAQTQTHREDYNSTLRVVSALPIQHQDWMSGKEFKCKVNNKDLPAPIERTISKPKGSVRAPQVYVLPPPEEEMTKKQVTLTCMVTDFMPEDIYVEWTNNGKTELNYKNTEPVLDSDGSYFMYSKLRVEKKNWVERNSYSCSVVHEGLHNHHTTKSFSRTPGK
# Procedure: as §2
# Foetal Calf IgG = experiment: SPR, VHH immobilised, IgG 50 µg/ml
# Procedure: as §2
# Swine IgG = experiment: SPR, VHH immobilised, IgG 50 µg/ml
# Procedure: as §2
# Rat IgG2c = Rat IgG2c (rat, UniProt P20762 1-329); experiment: SPR, VHH immobilised, IgG 50 µg/ml
# Chain of Rat IgG2c (P20762 whole entry): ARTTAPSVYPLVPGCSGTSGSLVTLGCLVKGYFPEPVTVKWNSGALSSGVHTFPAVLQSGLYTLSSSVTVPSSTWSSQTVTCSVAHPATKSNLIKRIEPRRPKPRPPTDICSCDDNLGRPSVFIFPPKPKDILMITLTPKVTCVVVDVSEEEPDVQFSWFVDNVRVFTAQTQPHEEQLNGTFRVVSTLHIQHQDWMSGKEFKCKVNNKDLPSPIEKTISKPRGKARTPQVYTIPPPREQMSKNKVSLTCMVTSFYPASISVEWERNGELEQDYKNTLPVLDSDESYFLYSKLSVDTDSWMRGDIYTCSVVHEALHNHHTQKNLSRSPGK
# Procedure: as §2
# HuIgG2 [10] = biological target: T2, HuIgG2; experiment: SPR, VHH immobilised, IgG 50 µg/ml
# Procedure: as §2
# HuIgG1 [11] = biological target: T3, HuIgG1; experiment: SPR, VHH immobilised, IgG 50 µg/ml
# Procedure: as §2
# HuIgG4 [12] = biological target: T4, HuIgG4; experiment: SPR, VHH immobilised, IgG 50 µg/ml
# Procedure: as §2
# Newborn Calf IgG = experiment: SPR, VHH immobilised, IgG 50 µg/ml
# Procedure: as §2
# Rat IgG1a = experiment: SPR, VHH immobilised, IgG 50 µg/ml
# Procedure: as §2
# Cat IgG = biological target: T12, Cat IgG; experiment: SPR, VHH immobilised, IgG 50 µg/ml
# T12 construct: also called IgG-Fc from cat
# Procedure: as §2
# Human IgG [13] = biological target: T5, Human IgG; experiment: SPR, VHH immobilised, IgG 50 µg/ml
# Procedure: as §2
# Mouse IgG [14] = biological target: T6, Mouse IgG; experiment: SPR, VHH immobilised, IgG 50 µg/ml
# Procedure: as §2
# Bovine IgG [15] = biological target: T7, Bovine IgG; experiment: SPR, VHH immobilised, IgG 50 µg/ml
# Procedure: as §2
# Guinea pig IgG = biological target: T13, Guinea pig IgG; experiment: SPR, VHH immobilised, IgG 50 µg/ml
# T13 construct: also called Guinea IgG; IgG-Fc from guinea pig
# Procedure: as §2
# Rat IgG = biological target: T14, Rat IgG; experiment: SPR, VHH immobilised, IgG 50 µg/ml
# T14 construct: also called IgG-Fc from rat
# Procedure: as §2
# Rat IgG2b = Rat IgG2b (rat, UniProt P20761 1-333); experiment: SPR, VHH immobilised, IgG 50 µg/ml
# Chain of Rat IgG2b (P20761 whole entry): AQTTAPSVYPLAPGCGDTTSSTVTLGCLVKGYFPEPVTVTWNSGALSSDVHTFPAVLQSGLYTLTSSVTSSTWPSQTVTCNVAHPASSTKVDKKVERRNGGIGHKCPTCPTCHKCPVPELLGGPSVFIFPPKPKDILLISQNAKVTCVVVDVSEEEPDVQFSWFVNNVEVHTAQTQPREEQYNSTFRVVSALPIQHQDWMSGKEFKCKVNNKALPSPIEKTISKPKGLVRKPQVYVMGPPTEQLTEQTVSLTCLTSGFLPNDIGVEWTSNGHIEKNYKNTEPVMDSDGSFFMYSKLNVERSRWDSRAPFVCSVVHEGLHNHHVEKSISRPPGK
# Procedure: as §2
# T1 sequence (P01860 other isoform, or with tags, fused parts or gaps): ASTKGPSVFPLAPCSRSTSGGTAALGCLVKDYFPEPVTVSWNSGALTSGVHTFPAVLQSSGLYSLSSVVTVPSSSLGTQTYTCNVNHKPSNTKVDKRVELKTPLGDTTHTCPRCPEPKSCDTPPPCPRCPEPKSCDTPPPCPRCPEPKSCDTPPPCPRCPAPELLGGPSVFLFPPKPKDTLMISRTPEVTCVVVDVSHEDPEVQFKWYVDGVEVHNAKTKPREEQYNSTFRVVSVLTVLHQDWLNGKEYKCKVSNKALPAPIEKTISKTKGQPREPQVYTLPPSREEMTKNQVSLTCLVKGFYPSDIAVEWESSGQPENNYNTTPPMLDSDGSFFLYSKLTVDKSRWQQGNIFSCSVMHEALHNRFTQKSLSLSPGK
binder,measurement,setting,value
B1,Ka,HuIgG3 [1],4.69e+07 M⁻¹
same,Kd,HuIgG3 [1],21.3 nM
same,koff,HuIgG3 [1],0.000849 s⁻¹
same,kon,HuIgG3 [1],39800 M⁻¹ s⁻¹
same,Ka,HuIgG2 [2],6.17e+07 M⁻¹
same,Kd,HuIgG2 [2],16.2 nM
same,koff,HuIgG2 [2],0.000355 s⁻¹
same,kon,HuIgG2 [2],21900 M⁻¹ s⁻¹
same,Ka,HuIgG1 [3],1.47e+08 M⁻¹
same,Kd,HuIgG1 [3],6.81 nM
same,koff,HuIgG1 [3],0.000211 s⁻¹
same,kon,HuIgG1 [3],31000 M⁻¹ s⁻¹
same,Ka,HuIgG4 [4],5.89e+08 M⁻¹
same,Kd,HuIgG4 [4],1.7 nM
same,koff,HuIgG4 [4],0.000107 s⁻¹
same,kon,HuIgG4 [4],62900 M⁻¹ s⁻¹
same,Ka,Human IgG [5],7.65e+07 M⁻¹
same,Kd,Human IgG [5],13.1 nM
same,koff,Human IgG [5],0.000462 s⁻¹
same,kon,Human IgG [5],35300 M⁻¹ s⁻¹
same,Ka,Mouse IgG [6],1.19e+08 M⁻¹
same,Kd,Mouse IgG [6],8.41 nM
same,koff,Mouse IgG [6],0.000198 s⁻¹
same,kon,Mouse IgG [6],23500 M⁻¹ s⁻¹
same,Ka,Bovine IgG [7],3.59e+08 M⁻¹
same,Kd,Bovine IgG [7],2.79 nM
same,koff,Bovine IgG [7],0.000386 s⁻¹
same,kon,Bovine IgG [7],138000 M⁻¹ s⁻¹
same,Dynamic binding capacity,Human IgG [8],11.5 mg human IgG/ml matrix
same,Binding signal (RU),Donkey IgG,638 RU
same,Binding signal (RU),Sheep IgG,846 RU
same,Binding signal (RU),"Bovine IgG, Fab fragment",-1.7 RU
same,Binding signal (RU),Syrian Hamster IgG,670 RU
same,Binding signal (RU),"Human IgG, Fab fragment",-2.8 RU
same,Binding signal (RU),Horse IgG,430 RU
same,Binding signal (RU),Rabbit IgG,800 RU
same,Binding signal (RU),"Human IgG, Fc fragment",807 RU
same,Binding signal (RU),HuIgG3 [9],499 RU
same,Binding signal (RU),Goat IgG,257 RU
same,Binding signal (RU),"Bovine IgG, Fc fragment",172 RU
same,Binding signal (RU),Mouse IgG 1,1610 RU
same,Binding signal (RU),Dog IgG,490 RU
same,Binding signal (RU),Rat IgG2a,444 RU
same,Binding signal (RU),Mouse IgG2a,427 RU
same,Binding signal (RU),Foetal Calf IgG,260 RU
same,Binding signal (RU),Swine IgG,811 RU
same,Binding signal (RU),Rat IgG2c,2130 RU
same,Binding signal (RU),HuIgG2 [10],795 RU
same,Binding signal (RU),HuIgG1 [11],1570 RU
same,Binding signal (RU),HuIgG4 [12],710 RU
same,Binding signal (RU),Newborn Calf IgG,239 RU
same,Binding signal (RU),Rat IgG1a,431 RU
same,Binding signal (RU),Cat IgG,410 RU
same,Binding signal (RU),Human IgG [13],1110 RU
same,Binding signal (RU),Mouse IgG [14],468 RU
same,Binding signal (RU),Bovine IgG [15],309 RU
same,Binding signal (RU),Guinea pig IgG,577 RU
same,Binding signal (RU),Rat IgG,108 RU
same,Binding signal (RU),Rat IgG2b,512 RU
